Measured values taken from the supplement of paper PMC9170038.

Experiments:
[1] = tested on: MS2 coat protein; assay: apparent KD of MS2 coat protein; higher = weaker reporter binding; settings: Eterna round: R101
Experimental: (§1)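 RNA-MaP: designed FMN/MS2 RNA switches (84 nt design region) are transcribed on-chip within common flanks and titrated with SNAP-549-labelled MS2 coat protein (about 1-3000 nM) in 100 mM Tris pH 7.5, 80 mM KCl, 4 mM MgCl2, without or with 200 uM FMN. Median apparent KD per design; activation ratio = KD,OFF / KD,ON.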

[2] = tested on: MS2 coat protein; assay: apparent KD of MS2 coat protein; designed switch direction (-1 OFF switch, 1 ON switch): -1; higher = weaker reporter binding; settings: Eterna round: R98
Experimental: as §1

[3] = tested on: MS2 coat protein; assay: apparent KD of MS2 coat protein; designed switch direction (-1 OFF switch, 1 ON switch): 1; higher = weaker reporter binding; settings: Eterna round: R98
Experimental: as §1

Row | Sequence | apparent KD of MS2 coat protein ([1]; input ligand: FMN 200 uM) | apparent KD of MS2 coat protein ([1]; input ligand: none) | apparent KD of MS2 coat protein ([2]; input ligand: FMN 200 uM) | apparent KD of MS2 coat protein ([2]; input ligand: none) | other results
1 | UAUAAUCUUUAAGGAUAUGACUCCGUUUCGGAGUCAGAAGGUGAGGAUCACCCACCUAGCUCAGGGUCGUUUGACCCUGAGCAU [#AddUracilToBrourdLoops 9 - Jieux - Exclusion NG1] (puzzle (switch architecture): Exclusion NG 1) | 10.6 nM | 8.87 nM | – | – | –
2 | ACCAUUUACUAAUCCUCUAUACAUGAGGAUCACCCAUGUUCUGAGGAUAUCAUCGUUCGCCGCGUUGAGAAGGCAGAGCAUUCG [AriestionMod 1 - Jieux - Exclusion NG 3] | – | – | 40.8 nM | 26.8 nM | –
3 | CCUGCACCUCAAGGAUAUCCAGUCGAAACGACUGGAGAAGGUGAGGAUCACCCACCUAGCCUGACGAAAGUCAGGCAUGCAGGA [#SharedSequence - ExNG1-1] (puzzle (switch architecture): Exclusion NG 1) | 32.8 nM | – | – | – | –
4 | GUCACGAAUGUAGGAUAUCGAGUGGAAUACACUCGAGAAGGACAUGAGGAUCACCCAUGUAAAAUGAAAGAUAAUAAACGUGAC [Exclsuion NG 1/2-B1] | – | – | 51.7 nM | 18 nM | –
5 | AAAUAACUUGAAGGAUAUGACCCUCGAGGUGACUAAAAGUCACCUCGAGGGUCAGAAGGUCGAGGAUCACCCGACCUAAAUAAA [#SharedSequence SLExNG1: 6-1] (puzzle (switch architecture): Small Loop Exclusion NG 1) | 6.69 nM | 7.14 nM | – | – | –
6 | GGUUGUUACGCAGGAUAUUGCCAACAGGCAGUAGGAUAUCCGAAAGGAGAAGGAUCGCCAACAGGCGAGAAGGGCGGGUUAACC [pwkr exNG2 2xF7 2FMN.10.5] | – | – | 121 nM | 1240 nM | –
7 | ACAGGUCGUGAGAAGGCGUGUGGCACCGUCGAAAGACGGUGCAAUUAAGAUCUUCGAGGAUCACCCGAGGAUAUCACGACCUGA [#SharedSequence - IExNG2: 18] (puzzle (switch architecture): Inverted Exclusion NG 2) | 70.4 nM | 18.6 nM | – | – | –
8 | GGUCGACUUCAAGGAUAUGGACUGCUUUGCAGUCCAGAAGGUGAGGAUCACCCAUCUACGGUCAGGUUUCUGACCGAUCGACCU [#AddUracilToBrourdLoops 8 - Jieux - Exclusion NG1] (puzzle (switch architecture): Exclusion NG 1) | 102 nM | 73.4 nM | – | – | –
9 | UAUAUAUAGGCAGGAUAUACAUGUAUAUAUAAUAUAUUAUAUAUUAUUACAUGAGGAUCACCCAUGUAGAAGGGCCAUAAUAUA [LRO035_Exclusion NG 2] | – | – | 52.7 nM | 30 nM | –
10 | AGGCAGCACUGCUACGUGGCCUCACAUGAGGAUCACCCAUGUAAGGAUAUCGGGUAGCAUUACCACGAGAAGGUACAUAAGAGG [Ceisle] (puzzle (switch architecture): Exclusion NG 3) | 25.8 nM | 15 nM | – | – | –
11 | UUCUGUGCCCAAAGUUAAAGCACAUGAGGAUCACCCAUGUGAAAGGAUAUGUGGCAUGUAAUGUUAUAGAAGGUUCACAAUCAA [Reveention] | – | – | 22.8 nM | 14.2 nM | –
12 | UGUCGGAGCAGAGGAUAUUACAUGAGGAUCACCCAUGUAUGAACCAAUAGCUGGAAACAGCAAUGUAAGAAGGCUGCUCCGACA (puzzle (switch architecture): Exclusion NG 2) | 177 nM | 12.3 nM | – | – | –
13 | GAGGACUGUAAUAAUGUAGAAAUACAUGAGGAUCACCCAUGUAAGGAUAUCGUCAGGAAUACUGACGAGAAGGUACAUCAGUCC [Exclusion NG 3/10-A2] | – | – | 24.8 nM | 17.3 nM | –
14 | AAAUAACUCGAAGGAUAUGACCCUCGAGGUGACUAAAAGUCACCUCGAGGGUCAGAAGGUCGAGGAUCACCCGACCUAAAUAAA [#SharedSequence SLExNG1: 5-1] (puzzle (switch architecture): Small Loop Exclusion NG 1) | 36.8 nM | 10.2 nM | – | – | –
15 | AGGAGAAAUGUAGGAUAUGGGCGGGCGUACGGGCAAAGCGCGUACGCCCGCCCAGAAGGACAUGAGGAUCACCCAUGUUUCCCU [#Lowering the energy 1] (puzzle (switch architecture): Small Loop Exclusion NG 1) | 16 nM | 14.5 nM | – | – | –
16 | UUAUUUUUACAGAAGGUUUAAUAAUAUAUAAGAGAAGGAUAUGUAACAUGAGGAUCACCCAUGUUUCACCCAUAUGAGGAUCAU [Astosinvert#10] (puzzle (switch architecture): Inverted Exclusion NG 1) | 7.94 nM | 8.28 nM | – | – | –
17 | UCGGCCCGGGAGAAGGACAUGAGGAUCACCCAUGUCGCCGGGCCCGGGAAACCGGGCCCGGCCAUGUAGGAUAUCCCGGGCCGA [#This is a good prank 2] (puzzle (switch architecture): Inverted Exclusion NG 2) | 4.79 nM | 4.59 nM | – | – | –
18 | AAAUAACUCGAAGGAUAUCAGGGUGCACCUCAGUAAAACUGAGGUGCACCCUGAGAAGGUCGAGGAUCACCCGACCUAAAUAAA [#SharedSequence SLExNG1: 5-2] (puzzle (switch architecture): Small Loop Exclusion NG 1) | 19.8 nM | 8.38 nM | – | – | –
19 | UCGACGAAAGUCGAACGAUGUAGCAGAAGGACAUGAGGAUCACCCAUGUCAGCUGUAACAGCCAUGUAGGAUAUGCUACAUCGG [salish99_ISLExNG3_007 #endbits investigation] (puzzle (switch architecture): Inverted Small Loop Exclusion NG 3) | – | 4.42 nM | – | – | –
20 | GGUCGUCACAUAUACAUGAGGAUCACCCAUGUCAAAAGACAUGAGGAUAUGGAUCCUAAUUGGAUCCAGAAGGCAUGGACGACC [#HiddenHairpinInALoop - Mat - Same State NG 3 - JL Mod - D11] (puzzle (switch architecture): Same State NG 3) | 21.4 nM | 412 nM | – | – | –
21 | UAUAUAAUUAAGAGCUGGUCCAAAACAUGAGGAUCACCCAUGUAGGAUAUCAGCACGAUAAGUGCUGAGAAGGACAACCAGCUC [Denovo 85] | – | – | 15.2 nM | 17.2 nM | –
22 | UCACUCAAGUUAGGAUAUGGAUCGGAAAACGAUCCAGAAGGAACAUGAAAACAUGAGCAUCAGCCAUGUUCCAGAAACGAGUGA [SameSame 4 - Jieux - Same State NG 1] | – | – | – | – | apparent KD of MS2 coat protein ([3]; input ligand: FMN 200 uM): 23.6 nM
23 | AGAACAUGAGGAUCACCCAUGUGAAGGUCGGCGUAUAAGGGUGAGGAUAUGCUUAAAAUAAGGAAGCAGAAGGUACUUGGUGCG [SameState #80 NG3] | – | – | – | – | apparent KD of MS2 coat protein ([3]; input ligand: FMN 200 uM): 75.3 nM; apparent KD of MS2 coat protein ([3]; input ligand: none): 165 nM
